Experimental data: paper PMC12677461

Target: Gαo, alpha subunit of the heterotrimeric G protein Go (native, mouse brain) (mouse (endogenous in BALB/c mouse brain)) (UniProt P18872)
Test: co-IP; mouse brain lysate (2 mg/ml in IP buffer: 50 mM HEPES pH 7.4, 100 mM NaCl, 1 mM EDTA, 3 mM EGTA, 10 mM MgCl2, 1% Triton X-100) with 100 µM GDP, 4 °C, 2 h; Gαo precipitated with anti-Gαo sc-13532 cross-linked to protein A/G agarose; read by protein stain and western blot

UniProt P18872, sequence (P18872 whole entry, one chain of several): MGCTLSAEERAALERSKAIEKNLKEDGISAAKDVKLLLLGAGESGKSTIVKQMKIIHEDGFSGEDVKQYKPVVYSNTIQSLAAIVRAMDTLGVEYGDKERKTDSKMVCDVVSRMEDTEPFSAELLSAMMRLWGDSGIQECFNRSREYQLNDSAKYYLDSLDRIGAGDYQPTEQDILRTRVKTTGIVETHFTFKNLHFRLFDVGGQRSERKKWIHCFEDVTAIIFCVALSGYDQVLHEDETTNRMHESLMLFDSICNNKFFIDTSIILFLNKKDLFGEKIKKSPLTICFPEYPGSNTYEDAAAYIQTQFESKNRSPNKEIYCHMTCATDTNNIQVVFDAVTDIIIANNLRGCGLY

Substance: Gβγ (G protein β and γ subunits, native, mouse brain) (from UniProt P62874 1-340; P63213 1-71) (complex)
- stoichiometry N: 1
